Results published in paper doi:10.1101/721969.

Target: Ib-pore (heptameric translocation channel of Clostridium perfringens iota toxin component Ib, after (Clostridium perfringens))
Test: cryo-EM structure

Ib-pore (heptameric translocation channel of Clostridium perfringens iota toxin component Ib, after (natural protein)
stoichiometry N: 7
